Earlier results, collected in patent publication KR20200047176A, “투라노스의 제조방법” (주식회사 삼양사, priority 2018, dated 2020).

Details: 2 M sucrose substrate

B1: NpAS: amylosucrase from Neisseria polysaccharea, known prior enzyme (protein, UniProt Q9ZEU2 1-636, looked up)
Amylosucrase: MLTPTQQVGLILQYLKTRILDIYTPEQRAGIEKSEDWRQFSRRMDTHFPKLMNELDSVYGNNEALLPMLEMLLAQAWQSYSQRNSSLKDIDIARENNPDWILSNKQVGGVCYVDLFAGDLKGLKDKIPYFQELGLTYLHLMPLFKCPEGKSDGGYAVSSYRDVNPALGTIGDLREVIAALHEAGISAVVDFIFNHTSNEHEWAQRCAAGDPLFDNFYYIFPDRRMPDQYDRTLREIFPDQHPGGFSQLEDGRWVWTTFNSFQWDLNYSNPWVFRAMAGEMLFLANLGVDILRMDAVAFIWKQMGTSCENLPQAHALIRAFNAVMRIAAPAVFFKSEAIVHPDQVVQYIGQDECQIGYNPLQMALLWNTLATREVNLLHQALTYRHNLPEHTAWVNYVRSHDDIGWTFADEDAAYLGISGYDHRQFLNRFFVNRFDGSFARGVPFQYNPSTGDCRVSGTAAALVGLAQDDPHAVDRIKLLYSIALSTGGLPLIYLGDEVGTLNDDDWSQDSNKSDDSRWAHRPRYNEALYAQRNDPSTAAGQIYQGLRHMIAVRQSNPRFDGGRLVTFNTNNKHIIGYIRNNALLAFGNFSEYPQTVTAHTLQAMPFKAHDLIGGKTVSLNQDLTLQPYQVMWLEIA
turanose conversion: 50.9%
